Laboratory results taken from patent US9958461B2, “Detection of protein to protein interactions” (THE GOVERNING COUNCIL OF THE UNIVERSITY OF TORONTO, priority 2013, dated 2018).

B1: HSPA4 (protein, UniProt P34932 1-840, looked up)
Heat shock 70 kDa protein 4: MSVVGIDLGFQSCYVAVARAGGIETIANEYSDRCTPACISFGPKNRSIGAAAKSQVISNAKNTVQGFKRFHGRAFSDPFVEAEKSNLAYDIVQLPTGLTGIKVTYMEEERNFTTEQVTAMLLSKLKETAESVLKKPVVDCVVSVPCFYTDAERRSVMDATQIAGLNCLRLMNETTAVALAYGIYKQDLPALEEKPRNVVFVDMGHSAYQVSVCAFNRGKLKVLATAFDTTLGGRKFDEVLVNHFCEEFGKKYKLDIKSKIRALLRLSQECEKLKKLMSANASDLPLSIECFMNDVDVSGTMNRGKFLEMCNDLLARVEPPLRSVLEQTKLKKEDIYAVEIVGGATRIPAVKEKISKFFGKELSTTLNADEAVTRGCALQCAILSPAFKVREFSITDVVPYPISLRWNSPAEEGSSDCEVFSKNHAAPFSKVLTFYRKEPFTLEAYYSSPQDLPYPDPAIAQFSVQKVTPQSDGSSSKVKVKVRVNVHGIFSVSSASLVEVHKSEENEEPMETDQNAKEEEKMQVDQEEPHVEEQQQQTPAENKAESEEMETSQAGSKDKKMDQPPQAKKAKVKTSTVDLPIENQLLWQIDREMLNLYIENEGKMIMQDKLEKERNDAKNAVEEYVYEMRDKLSGEYEKFVSEDDRNSFTLKLEDTENWLYEDGEDQPKQVYVDKLAELKNLGQPIKIRFQESEERPKLFEELGKQIQQYMKIISSFKNKEDQYDHLDAADMTKVEKSTNEAMEWMNNKLNLQNKQSLTMDPVVKSKEIEAKIKELTSTCSPIISKPKPKVEPPKEEQKNAEQNGPVDGQGDNPGPQAAEQGTDTAVPSDSDKKLPEMDID
B2: ARHGEF7 (protein, UniProt Q14155 1-803, looked up)
Rho guanine nucleotide …: MNSAEQTVTWLITLGVLESPKKTISDPEGFLQASLKDGVVLCRLLERLLPGTIEKVYPEPRSESECLSNIREFLRGCGASLRLELLFPPSQPPQHLVTTILLSASTFDANDLYQGQNFNKVLSSLVTLNKVTADIGLGSDSVCARPSSHRIKSFDSLGSQSLHTRTSKLFQGQYRSLDMTDNSNNQLVVRAKFNFQQTNEDELSFSKGDVIHVTRVEEGGWWEGTLNGRTGWFPSNYVREVKASEKPVSPKSGTLKSPPKGFDTTAINKSYYNVVLQNILETENEYSKELQTVLSTYLRPLQTSEKLSSANISYLMGNLEEICSFQQMLVQSLEECTKLPEAQQRVGGCFLNLMPQMKTLYLTYCANHPSAVNVLTEHSEELGEFMETKGASSPGILVLTTGLSKPFMRLDKYPTLLKELERHMEDYHTDRQDIQKSMAAFKNLSAQCQEVRKRKELELQILTEAIRNWEGDDIKTLGNVTYMSQVLIQCAGSEEKNERYLLLFPNVLLMLSASPRMSGFIYQGKLPTTGMTITKLEDSENHRNAFEISGSMIERILVSCNNQQDLQEWVEHLQKQTKVTSVGNPTIKPHSVPSHTLPSHPVTPSSKHADSKPAPLTPAYHTLPHPSHHGTPHTTINWGPLEPPKTPKPWSLSCLRPAPPLRPSAALCYKEDLSKSPKTMKKLLPKRKPERKPSDEEFASRKSTAALEEDAQILKVIEAYCTSAKTRQTLNSTWQGTDLMHNHVLADDDQPSLDSLGRRSSLSRLEPSDLSEDSDYDSIWTAHSYRMGSTSRKSCCSYISHQN
B3: CISH (protein, UniProt Q9NSE2 1-258, looked up)
Cytokine-inducible …: MVLCVQGPRPLLAVERTGQRPLWAPSLELPKPVMQPLPAGAFLEEVAEGTPAQTESEPKVLDPEEDLLCIAKTFSYLRESGWYWGSITASEARQHLQKMPEGTFLVRDSTHPSYLFTLSVKTTRGPTNVRIEYADSSFRLDSNCLSRPRILAFPDVVSLVQHYVASCTADTRSDSPDPAPTPALPMPKEDAPSDPALPAPPPATAVHLKLVQPFVRRSSARSLQHLCRLVINRLVADVDCLPLPRRMADYLRQYPFQL
B4: TNS3 (protein, UniProt Q68CZ2 1-1445, looked up)
Tensin-3: MEEGHGLDLTYITERIIAVSFPAGCSEESYLHNLQEVTRMLKSKHGDNYLVLNLSEKRYDLTKLNPKIMDVGWPELHAPPLDKMCTICKAQESWLNSNLQHVVVIHCRGGKGRIGVVISSYMHFTNVSASADQALDRFAMKKFYDDKVSALMQPSQKRYVQFLSGLLSGSVKMNASPLFLHFVILHGTPNFDTGGVCRPFLKLYQAMQPVYTSGIYNVGPENPSRICIVIEPAQLLKGDVMVKCYHKKYRSATRDVIFRLQFHTGAVQGYGLVFGKEDLDNASKDDRFPDYGKVELVFSATPEKIQGSEHLYNDHGVIVDYNTTDPLIRWDSYENLSADGEVLHTQGPVDGSLYAKVRKKSSSDPGIPGGPQAIPATNSPDHSDHTLSVSSDSGHSTASARTDKTEERLAPGTRRGLSAQEKAELDQLLSGFGLEDPGSSLKEMTDARSKYSGTRHVVPAQVHVNGDAALKDRETDILDDEMPHHDLHSVDSLGTLSSSEGPQSAHLGPFTCHKSSQNSLLSDGFGSNVGEDPQGTLVPDLGLGMDGPYERERTFGSREPKQPQPLLRKPSVSAQMQAYGQSSYSTQTWVRQQQMVVAHQYSFAPDGEARLVSRCPADNPGLVQAQPRVPLTPTRGTSSRVAVQRGVGSGPHPPDTQQPSPSKAFKPRFPGDQVVNGAGPELSTGPSPGSPTLDIDQSIEQLNRLILELDPTFEPIPTHMNALGSQANGSVSPDSVGGGLRASSRLPDTGEGPSRATGRQGSSAEQPLGGRLRKLSLGQYDNDAGGQLPFSKCAWGKAGVDYAPNLPPFPSPADVKETMTPGYPQDLDIIDGRILSSKESMCSTPAFPVSPETPYVKTALRHPPFSPPEPPLSSPASQHKGGREPRSCPETLTHAVGMSESPIGPKSTMLRADASSTPSFQQAFASSCTISSNGPGQRRESSSSAERQWVESSPKPMVSLLGSGRPTGSPLSAEFSGTRKDSPVLSCFPPSELQAPFHSHELSLAEPPDSLAPPSSQAFLGFGTAPVGSGLPPEEDLGALLANSHGASPTPSIPLTATGAADNGFLSHNFLTVAPGHSSHHSPGLQGQGVTLPGQPPLPEKKRASEGDRSLGSVSPSSSGFSSPHSGSTISIPFPNVLPDFSKASEAASPLPDSPGDKLVIVKFVQDTSKFWYKADISREQAIAMLKDKEPGSFIVRDSHSFRGAYGLAMKVATPPPSVLQLNKKAGDLANELVRHFLIECTPKGVRLKGCSNEPYFGSLTALVCQHSITPLALPCKLLIPERDPLEEIAESSPQTAANSAAELLKQGAACNVWYLNSVEMESLTGHQAIQKALSITLVQEPPPVSTVVHFKVSAQGITLTDNQRKLFFRRHYPVNSVIFCALDPQDRKWIKDGPSSKVFGFVARKQGSATDNVCHLFAEHDPEQPASAIVNFVSKVMIGSPKKV
B5: SHC4 (protein, UniProt Q6S5L8 1-630, looked up)
SHC-transforming protein 4: MRERGQDSLAGLVLYVGLFGHPGMLHRAKYSRFRNESITSLDEGSSGGSVGNKGSPQPPHPALAPHLPTEDATLPSQESPTPLCTLIPRMASMKLANPATLLSLKNFCLGTKEVPRLKLQESRDPGSSGPSSPETSLSRSGTAPPPQQDLVGHRATALTPDSCPLPGPGEPTLRSRQDRHFLQHLLGMGMNYCVRYMGCVEVLQSMRSLDFGMRTQVTREAISRLCEAVPGANGAIKKRKPPVKFLSTVLGKSNLQFSGMNIKLTISTCSLTLMNLDNQQIIANHHMQSISFASGGDPDTTDYVAYVAKDPVNQRACHILECHNGMAQDVISTIGQAFELRFKQYLKNPSLNTSCESEEVHIDSHAEEREDHEYYNEIPGKQPPVGGVSDMRIKVQATEQMAYCPIQCEKLCYLPGNSKCSSVYENCLEQSRAIGNVHPRGVQSQRDTSLLKHTCRVDLFDDPCYINTQALQSTPGSAGNQRSAQPLGSPWHCGKAPETVQPGATAQPASSHSLPHIKQQLWSEECYHGKLSRKAAESLLVKDGDFLVRESATSPGQYVLSGLQGGQAKHLLLVDPEGKVRTKDHVFDNVGHLIRYHMDNSLPIISSGSEVSLKQPVRKDNNPALLHSNK
B6: EPS8 (protein, UniProt Q12929 1-822, looked up)
Epidermal growth factor …: MNGHISNHPSSFGMYPSQMNGYGSSPTFSQTDREHGSKTSAKALYEQRKNYARDSVSSVSDISQYRVEHLTTFVLDRKDAMITVDDGIRKLKLLDAKGKVWTQDMILQVDDRAVSLIDLESKNELENFPLNTIQHCQAVMHSCSYDSVLALVCKEPTQNKPDLHLFQCDEVKANLISEDIESAISDSKGGKQKRRPDALRMISNADPSIPPPPRAPAPAPPGTVTQVDVRSRVAAWSAWAADQGDFEKPRQYHEQEETPEMMAARIDRDVQILNHILDDIEFFITKLQKAAEAFSELSKRKKNKKGKRKGPGEGVLTLRAKPPPPDEFLDCFQKFKHGFNLLAKLKSHIQNPSAADLVHFLFTPLNMVVQATGGPELASSVLSPLLNKDTIDFLNYTVNGDERQLWMSLGGTWMKARAEWPKEQFIPPYVPRFRNGWEPPMLNFMGATMEQDLYQLAESVANVAEHQRKQEIKRLSTEHSSVSEYHPADGYAFSSNIYTRGSHLDQGEAAVAFKPTSNRHIDRNYEPLKTQPKKYAKSKYDFVARNNSELSVLKDDILEILDDRKQWWKVRNASGDSGFVPNNILDIVRPPESGLGRADPPYTHTIQKQRMEYGPRPADTPPAPSPPPTPAPVPVPLPPSTPAPVPVSKVPANITRQNSSSSDSGGSIVRDSQRHKQLPVDRRKSQMEEVQDELIHRLTIGRSAAQKKFHVPRQNVPVINITYDSTPEDVKTWLQSKGFNPVTVNSLGVLNGAQLFSLNKDELRTVCPEGARVYSQITVQKAALEDSSGSSELQEIMRRRQEKISAAASDSGVESFDEGSSH

These molecules were tested against T1, EGFR-L858R (Homo sapiens, UniProt P00533, L858R) (assay: MaMTH EGFR-interactor screen, lentiviral preys against EGFR-L858R bait (interaction score)). Conditions: MaMTH interaction score of prey with EGFR-L858R bait.
T1 construct: with the advantage of testing full-length integral membrane proteins; (GGGGS)2 linker-Cub (human ubiquitin aa 35-76)-GAL4(1-147)-mNFkB(364-550) (C); expressed in transfected cells
Type: cell-based
Procedure, shortened: (§1)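 5×GAL4UAS-luciferase HEK293T reporter cells were lentivirally infected with preys (MOI ~0.3-0.4) and puromycin-selected ≥48 h. They were then transfected in triplicate with the EGFR bait, and luciferase was read 24 h later. Score is fold-change over averaged negative-control preys; >1 denotes interaction.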

Molecule | EGFR-L858R mean
B1 | 2.48
B2 | 2.76
B3 | 2.66
B4 | 3.12
B5 | 11.39
B6 | 5.58

What follows are molecules tested against T2, EGFR-Wt (Homo sapiens, UniProt P00533) (assay: MaMTH EGFR-interactor screen, lentiviral preys against EGFR-wildtype bait (interaction score)). Conditions: MaMTH interaction score of prey with EGFR-Wt bait, mean.
T2 construct: with the advantage of testing full-length integral membrane proteins; (GGGGS)2 linker-Cub (human ubiquitin aa 35-76)-GAL4(1-147)-mNFkB(364-550) (C); expressed in transfected cells
Type: cell-based
Procedure, shortened: as §1

Molecule | EGFR-Wt mean
B1 | 1.13
B2 | 1.24
B3 | 1.29
B4 | 1.39
B5 | 5.31
B6 | 2.62

The molecules below were run on EGFR-Wt in the same assay as above. Conditions: ratio of EGFR-Wt mean to EGFR-L858R mean interaction score.
Type: cell-based, human
Procedure, shortened: as §1

Molecule | Wt/L858R
B1 | 0.46
B2 | 0.45
B3 | 0.49
B4 | 0.45
B5 | 0.47
B6 | 0.47
